The target of assay [1] is human GPC3 on SK-HEP-1-huGPC3 cells (human) (UniProt P51654). The assay can be described thus: flow cytometry on SK-HEP-1-huGPC3 cells, PE anti-mouse IgG Fc. (In general: Flow cytometry measures light scatter and fluorescence of single cells or particles in a stream.)
For assay [2], the target named is cynomolgus monkey GPC3 on SK-HEP-1-cmGPC3 cells (cynomolgus monkey). The assay can be described thus: flow cytometry on SK-HEP-1-cmGPC3 cells, PE anti-mouse IgG Fc.
Assay [3] has as its target mouse GPC3 on SK-HEP-1-muGPC3 cells (mouse) (UniProt Q8CFZ4). Nature of the assay: flow cytometry on SK-HEP-1-muGPC3 cells, PE anti-mouse IgG Fc.

Positive population, % data for one substance are collected here from patent publication US20230088461A1.

mouse GPC3 on SK-HEP-1-muGPC3 cells (mouse), sequence (Q8CFZ4 25-553 limits assumed): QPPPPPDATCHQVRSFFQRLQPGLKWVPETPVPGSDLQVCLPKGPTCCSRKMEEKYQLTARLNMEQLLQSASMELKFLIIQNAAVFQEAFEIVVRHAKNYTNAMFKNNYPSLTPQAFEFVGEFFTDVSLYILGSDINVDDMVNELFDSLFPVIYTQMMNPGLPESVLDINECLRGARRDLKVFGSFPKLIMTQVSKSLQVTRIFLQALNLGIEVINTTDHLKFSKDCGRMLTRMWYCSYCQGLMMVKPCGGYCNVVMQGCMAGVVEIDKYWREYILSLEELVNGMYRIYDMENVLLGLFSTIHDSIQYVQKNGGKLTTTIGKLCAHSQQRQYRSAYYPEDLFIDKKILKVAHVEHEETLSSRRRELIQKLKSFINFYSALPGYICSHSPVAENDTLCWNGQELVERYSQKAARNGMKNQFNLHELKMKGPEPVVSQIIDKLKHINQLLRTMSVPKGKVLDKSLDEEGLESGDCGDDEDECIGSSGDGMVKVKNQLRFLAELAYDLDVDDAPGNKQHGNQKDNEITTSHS

For ISOTYPE (antibody), the Positive population, % turned out to be 0.85% in assay [1], 0.43% in assay [2] and 0.91% in assay [3].
